B1: Twister Ribozyme (parent)
chain: AACACUGCCAAUGCCGGUCCCAAGCCCGGAUAAAAGUGGAGGGGGCGG

Variants of: B1
Test: self-cleavage, relative activity (ratio to wild type); higher = more cleavage; co-transcriptional

Variant | self-cleavage
AACACUGCCAAUGCCGGUCCCAAGCUCGGAUAAAAGUGAAGGGGGCGG | 0.118
AACACUGCCAAUGCCGGUCCCAAGCGCGGAUAAAAGUGGAGGGGCCGG | 0.117
AACACUGCCAAUGCCGGUCCCAAGCGCGGAUAAAAGUGGAGGGGACGG | 0.154
AACACUGCCAAUGCCGGUCCCAAGCGCGGAUAAAAGUGGAGGCGGCGG | 0.141
AACACUGCCAAUGCCGGUCCCAAGCGCGGAUAAAAGUGGAGGAGGCGG | 0.128
AACACUGCCAAUGCCGGUCCCAAGCUCGGAUAAAAGUCGAGGGGGCGG | 0.225
AACACUGCCAAUGCCGGUCCCAAGCUCGGAUAAAAGUAGAGGGGGCGG | 0.157
AACACUGCCAAUGCCGGUCCCAAGCGCGGAUAAAAGUGUAGGGGGCGG | 0.103
AACACUGCCAAUGCCGGUCCCAAGCGCGGAUAAAAGUGCAGGGGGCGG | 0.119
AACACUGCCAAUGCCGGUCCCAAGCGCGGAUAAUAGUGGAGGGGGCGG | 0.15
AACACUGCCAAUGCCGGUCCCAAGCGCGGAUAAGAGUGGAGGGGGCGG | 0.0982
AACACUGCCAAUGCCGGUCCCAAGCACGGAUAAAAGUGGAGGUGGCGG | 0.11
AACACUGCCAAUGCCGGUCCCAAGCACGGAUAAAAGUGGAGGAGGCGG | 0.124
AACACUGCCAAUGCCGGUCCCAAGCACGGAUAAAAGUGGAGGCGGCGG | 0.111
AACACUGCCAAUGCCGGUCCCAAGCCAGGAUAAAAGUGGAGGGGGCGG | 0.672
AACACUGCCAAUGCCGGUCCCAAGCUCGGAUCAAAGUGGAGGGGGCGG | 0.451
AACACUGCCAAUGCCGGUCCCAAGCUCGGAUGAAAGUGGAGGGGGCGG | 0.411
AACACUGCCAAUGCCGGUCCCAAGCUCGGAUUAAAGUGGAGGGGGCGG | 0.34
AACACUGCCAAUGCCGGUCCCAAGCUCGGAUAAAAGCGGAGGGGGCGG | 0.116
AACACUGCCAAUGCCGGUCCCAAGCUCGGAUAAAAGGGGAGGGGGCGG | 0.118
AACACUGCCAAUGCCGGUCCCAAGCGCGGGUAAAAGUGGAGGGGGCGG | 0.214
AACACUGCCAAUGCCGGUCCCAAGCACGCAUAAAAGUGGAGGGGGCGG | 0.122
AACACUGCCAAUGCCGGUCCCAAGCACGAAUAAAAGUGGAGGGGGCGG | 0.267
AACACUGCCAAUGCCGGUCCCAAGCACGUAUAAAAGUGGAGGGGGCGG | 0.214
AACACUGCCAAUGCCGGUCCCAAGCCAGGCUAAAAGUGGAGGGGGCGG | 0.12
AACACUGCCAAUGCCGGUCCCAAGCCAGGUUAAAAGUGGAGGGGGCGG | 0.707
AACACUGCCAAUGCCGGUCCCAAGCUCGGGUAAAAGUGGAGGGGGCGG | 0.419

Variant | self-cleavage
AACACUGCCAAUGCCGGUCCCAAGCUCGGCUAAAAGUGGAGGGGGCGG | 0.0974
AACACUGCCAAUGCCGGUCCCAAGCACGGAUAAAAGUGGAGCGGGCGG | 0.131
AACACUGCCAAUGCCGGUCCCAAGCACGGAUAAAAGUGGAGAGGGCGG | 0.132
AACACUGCCAAUGCCGGUCCCAAGCACGGAUAAAAGUGGAGGGCGCGG | 0.212
AACACUGCCAAUGCCGGUCCCAAGCGAGGAUAAAAGUGGAGGGGGCGG | 0.107
AACACUGCCAAUGCCGGUCCCAAGCGGGGAUAAAAGUGGAGGGGGCGG | 0.106
AACACUGCCAAUGCCGGUCCCAAGCUCGGAUAAAAGUGGAUGGGGCGG | 0.145
AACACUGCCAAUGCCGGUCCCAAGCUCGGAUAAAAGUGGACGGGGCGG | 0.154
AACACUGCCAAUGCCGGUCCCAAGCCAGGAUAAAGGUGGAGGGGGCGG | 0.0986
AACACUGCCAAUGCCGGUCCCAAGCCAGGAUAAACGUGGAGGGGGCGG | 0.58
AACACUGCCAAUGCCGGUCCCAAGCCAGGAUAAAUGUGGAGGGGGCGG | 0.742
AACACUGCCAAUGCCGGUCCCAAGCGCGGAUAAAAGUGGGGGGGGCGG | 0.127
AACACUGCCAAUGCCGGUCCCAAGCACGGAUAAAAGCGGAGGGGGCGG | 0.105
AACACUGCCAAUGCCGGUCCCAAGCUCGGAUAAAAGUGGAGGGGGCGA | 0.185
AACACUGCCAAUGCCGGUCCCAAGCUCGGAUAAAAGUGGAGGGGGCGU | 0.32
AACACUGCCAAUGCCGGUCCCAAGCUCGGAUAAAAGUGGAGGGGGCGC | 0.301
AACACUGCCAAUGCCGGUCCCAAGCACCGAUAAAAGUGGAGGGGGCGG | 0.48
AACACUGCCAAUGCCGGUCCCAAGCACUGAUAAAAGUGGAGGGGGCGG | 0.114
AACACUGCCAAUGCCGGUCCCAAGCGCGGAUAAAAGUGGACGGGGCGG | 0.0955
AACACUGCCAAUGCCGGUCCCAAGCGCGGAUAAAAGUGGAUGGGGCGG | 0.0825
AACACUGCCAAUGCCGGUCCCAAGCACGGACAAAAGUGGAGGGGGCGG | 0.7
AACACUGCCAAUGCCGGUCCCAAGCACGGAAAAAAGUGGAGGGGGCGG | 0.638
AACACUGCCAAUGCCGGUCCCAAGCGCGGAUAAAGGUGGAGGGGGCGG | 0.16
AACACUGCCAAUGCCGGUCCCAAGCGCGGAUAAACGUGGAGGGGGCGG | 0.319
AACACUGCCAAUGCCGGUCCCAAGCGCGGAUAAAAGUGGAGAGGGCGG | 0.103
AACACUGCCAAUGCCGGUCCCAAGCGCGGAUAAAAGUGGAGCGGGCGG | 0.139
AACACUGCCAAUGCCGGUCCCAAGCUCGGAUAAAUGUGGAGGGGGCGG | 0.553
